Where a chain is given by its changes, count along the chain named.
Columns and labels:
[1] = molecular target: T1, recombinant CEACAM5 antigen (Sinobiological, 11077-H08H) (UniProt P06731 35-685); assay: ELISA, coated recombinant CEACAM5-His 1 µg/ml, anti-human IgG Fc-HRP
T1 construct: Bought protein; also called CEACAM5-His recombinant protein; CEACAM5-His antigen; not shown: His tag
T1 sequence (looked up): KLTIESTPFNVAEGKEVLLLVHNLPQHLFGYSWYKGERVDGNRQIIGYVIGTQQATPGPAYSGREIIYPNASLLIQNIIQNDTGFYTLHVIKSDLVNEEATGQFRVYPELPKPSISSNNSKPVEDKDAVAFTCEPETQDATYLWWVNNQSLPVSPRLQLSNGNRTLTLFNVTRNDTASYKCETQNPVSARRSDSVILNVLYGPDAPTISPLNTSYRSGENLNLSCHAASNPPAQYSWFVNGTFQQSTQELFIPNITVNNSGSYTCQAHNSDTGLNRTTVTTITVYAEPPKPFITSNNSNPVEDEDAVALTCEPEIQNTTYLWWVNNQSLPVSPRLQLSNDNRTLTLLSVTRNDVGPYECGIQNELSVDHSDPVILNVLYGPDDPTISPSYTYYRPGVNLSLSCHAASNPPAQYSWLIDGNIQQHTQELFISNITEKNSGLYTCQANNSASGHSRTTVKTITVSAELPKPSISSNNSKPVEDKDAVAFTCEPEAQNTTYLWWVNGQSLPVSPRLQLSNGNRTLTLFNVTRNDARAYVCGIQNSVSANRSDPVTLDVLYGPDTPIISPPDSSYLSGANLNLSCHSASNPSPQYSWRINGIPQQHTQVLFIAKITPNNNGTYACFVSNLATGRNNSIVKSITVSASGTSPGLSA
Method: The recombinant CEACAM5 antigen (Sinobiological, 11077-H08H) was diluted to 1 μg/ml with DPBS solution, added to a 96-well plate, 100 μl per well, and coated overnight at 2-8° C.; the coating solution was discarded, washing was performed twice with PBS solution, PBS solution containing 2% BSA was added, and blocked at room temperature for 2 hours; the blocking solution was discarded, the antibody diluted in concentration gradient was added, and incubated at 37° C. for 1 hour; the antibody solution was discarded, and washing was performed for 4 times with PBS solution containing 0.05% Tween 20 (PBST solution); anti-human IgG Fc-HRP secondary antibody was added and incubated at 37° C. for 30 minutes; washing was performed for 4 times with PBST solution, TMB chromogenic substrate was added, color development was performed for 5-10 minutes, and the reaction was terminated with equal volume of 1M H₂SO₄; the absorbance at 450 nm was read on a microplate reader.

[2] = molecular target: T2, CEACAM5 (CD66e) on tumour cells (human, UniProt P06731 35-685, glycosylated (natural, as on tumour cells)); assay: flow cytometry on LS174T cells, anti-human IgG Fc-APC
T2 construct: whole, on cells; One molecule for CEACAM5 on all three cell lines; the cell line is named under assay; also called natural CEACAM5 antigen; Lovo cells
T2 sequence (looked up): T1 sequence (looked up)
Method: (§1) After the cells were digested with TrypLE, they were centrifuged and resuspended in DPBS solution containing 2% BSA (FACS buffer solution, 4° C.), and added into a U-bottom 96-well plate, 5×10⁵/100 μl/well, and antibody diluted in concentration gradient was added, incubated at 4° C. for 1 hour, the supernatant was discarded after centrifugation; 100 μl of solution containing anti-human IgG Fc-APC secondary antibody was added and incubated at 4° C. for 1 hour, washing was performed once with FACS buffer, resuspending was performed in 200 μl FACS buffer, and the fluorescence signal value was read on BD Cantoll.

[3] = molecular target: T2, CEACAM5 (CD66e) on tumour cells; assay: flow cytometry on KATO3 cells, anti-human IgG Fc-APC
Method: as §1

[4] = molecular target: T2, CEACAM5 (CD66e) on tumour cells; assay: flow cytometry on Lovo monoclonal clone 8-1, fluorescent secondary antibody
Method: (§2) After labeling, anti-mouse Fc-PE fluorescence-labeled secondary antibody was added, sorted into 96-well plate by BD FACS Aria, after monoclonal culture was carried out, MN14 was used to detect the expression of monoclonal CEACAM5, and the results were as follows: […]

[5] = molecular target: T2, CEACAM5 (CD66e) on tumour cells; assay: flow cytometry on Lovo monoclonal clone 3-2, fluorescent secondary antibody
Method: as §2

[6] = molecular target: T2, CEACAM5 (CD66e) on tumour cells; assay: flow cytometry on Lovo monoclonal clone 6-1, fluorescent secondary antibody
Method: as §2

[7] = molecular target: T2, CEACAM5 (CD66e) on tumour cells; assay: flow cytometry on Lovo monoclonal clone 7-1, fluorescent secondary antibody
Method: as §2

[8] = molecular target: T2, CEACAM5 (CD66e) on tumour cells; assay: flow cytometry on Lovo monoclonal clone 3-1, fluorescent secondary antibody
Method: as §2

[9] = molecular target: T2, CEACAM5 (CD66e) on tumour cells; assay: flow cytometry on Lovo monoclonal clone 8-2, fluorescent secondary antibody
Method: as §2

[10] = molecular target: T2, CEACAM5 (CD66e) on tumour cells; assay: flow cytometry on Lovo monoclonal clone 6-2, fluorescent secondary antibody
Method: as §2

[11] = molecular target: T2, CEACAM5 (CD66e) on tumour cells; assay: flow cytometry on Lovo monoclonal clone 4-2, fluorescent secondary antibody
Method: as §2

[12] = molecular target: T2, CEACAM5 (CD66e) on tumour cells; assay: flow cytometry on Lovo monoclonal clone 4-1, fluorescent secondary antibody
Method: as §2

[13] = molecular target: T2, CEACAM5 (CD66e) on tumour cells; assay: flow cytometry on Lovo monoclonal clone 1-2, fluorescent secondary antibody
Method: as §2

[14] = molecular target: T2, CEACAM5 (CD66e) on tumour cells; assay: flow cytometry on Lovo monoclonal clone 7-2, fluorescent secondary antibody
Method: as §2

[15] = molecular target: T2, CEACAM5 (CD66e) on tumour cells; assay: flow cytometry on Lovo monoclonal clone 5-2, fluorescent secondary antibody
Method: as §2

[16] = molecular target: T2, CEACAM5 (CD66e) on tumour cells; assay: flow cytometry on Lovo monoclonal clone 2-2, fluorescent secondary antibody
Method: as §2

[17] = molecular target: T2, CEACAM5 (CD66e) on tumour cells; assay: flow cytometry on Lovo monoclonal clone 5-1, fluorescent secondary antibody
Method: as §2

[18] = molecular target: T2, CEACAM5 (CD66e) on tumour cells; assay: flow cytometry on Lovo monoclonal clone 1-1, fluorescent secondary antibody
Method: as §2

[19] = molecular target: T2, CEACAM5 (CD66e) on tumour cells; assay: flow cytometry on Lovo monoclonal clone 2-1, fluorescent secondary antibody
Method: as §2

B1: M7 (11B6) chimeric recombinant antibody (antibody, V domains shown)
VH: EVQLQQSGAELVRPGASVKLSCTVSGFNIKDDYMHWVKQRPEQGLEWIGWIDPENGDTEYASKFQGKATITADTSSNSAYLQLSSLTSEDTAVYYCTFIYYVNPHYYAMDYWGQGTSVTVSS
VL: QIVLTQSPAIMSASPGEKVTITCSATSSVSYMHWFQQKPGTSPKLWIYSTSNLASGVPARFSGSGSGTSYSLTISRVEAEDAATYYCQQRSSYPLTFGAGTKLELK
EC50 [1]: 0.008 µg/mL | EC50 [2]: 1.9 µg/mL | EC50 [3]: 2.6 µg/mL

B2: M17 (6A8) chimeric recombinant antibody (antibody, V domains shown)
VH: EVQLQQSGAELVRPGASVKLSCTASGFNIKDDYMHWVKQRPEQGLEWIGWIDPENGDTEYASKFQGKATITADTSSNTAYLLLSSLTSEDTAVYYCTTIYYYGSRGAMDYWGQGTSVTVSS
VL: B1 VL with T26S, S49T, N52T, S71F, V77M, Q88H
EC50 [1]: 0.013 µg/mL | EC50 [2]: 1.5 µg/mL | EC50 [3]: 2.7 µg/mL

B3: M18 (7G1) chimeric recombinant antibody (antibody, V domains shown)
VH: QIQLVQSGPELKKPGETVKISCKASGYTFTTYGMTWVKQAPGKGLKWMGWINTYSGVPTYIDDFKGRFAFSLETSASTAYLQINNLKNEDTATYFCGRKDLLGFMDYWGQGTSVTVSS
VL: DIQMTQSPSSLSASLGGKVTITCKTSQDINKFMAWYQHKPGKGPRLLIRYTSTLQPGIPSRFSGSGSGRDYSFSIRNLEPEDIATYYCLQYDDLTWTFGGGTKLEI
EC50 [1]: 0.016 µg/mL | EC50 [2]: 11.9 µg/mL | EC50 [3]: 13.9 µg/mL

B4: anti-CEACAM5 antibody hMN14 (antibody, human IgG1, kappa, V domains shown)
VH: EVQLVESGGGVVQPGRSLRLSCSASGFDFTTYWMSWVRQAPGKGLEWIGEIHPDSSTINYAPSLKDRFTISRDNAKNTLFLQMDSLRPEDTGVYFCASLYFGFPWFAYWGQGTPVTVSS
VL: DIQLTQSPSSLSASVGDRVTITCKASQDVGTSVAWYQQKPGKAPKLLIYWTSTRHTGVPSRFSGSGSGTDFTFTISSLQPEDIATYYCQQYSLYRSFGQGTKVEIKR
notes: T0002 prints whole heavy and light chains under the labels 'hMN14 VH' and 'hMN14 VL'
CEACAM5 positive ratio, % [4]: 97.9% | CEACAM5 positive ratio, % [5]: 95.9% | CEACAM5 positive ratio, % [6]: 98.6% | CEACAM5 positive ratio, % [7]: 93.9% | CEACAM5 positive ratio, % [8]: 97.8% | CEACAM5 positive ratio, % [9]: 96.8% | CEACAM5 positive ratio, % [10]: 88.1% | CEACAM5 positive ratio, % [11]: 82.7% | CEACAM5 positive ratio, % [12]: 93.7% | CEACAM5 positive ratio, % [13]: 95.6% | CEACAM5 positive ratio, % [14]: 96.9% | CEACAM5 positive ratio, % [15]: 96.9% | CEACAM5 positive ratio, % [16]: 96.4% | CEACAM5 positive ratio, % [17]: 76.6% | CEACAM5 positive ratio, % [18]: 90.5% | CEACAM5 positive ratio, % [19]: 95.6%
